Patent US6988446B2, “Purified nitric oxide synthase” (priority 1996, dated 2006)
Read-outs that look alike come from different tables or passages of the source. Marks after values point to notes of the source that are not given here. Non-standard residues stand in square brackets, D forms with d. No end group written: not given here. 2Thi = N[C@@H](Cc1cccs1)C(=O)O

Tests used:
nNOS-II [1] = target: T1, nNOS-II (Rattus norvegicus, UniProt P29476); assay: Standard NOS enzyme assay (oxyhemoglobin to methemoglobin), peptides as substrates, initial velocity; assay type: biochemical; parameters: decrease of activity as substrate: concentration or dose not given beside the values; settings: for relative activity as substrate for nNOS-II (in words): comparator (arginine or BK)
Procedure: (§1) NOS Activity Assay: NOS activity was determined spectrophotometrically by the rapid and quantitative oxidation of oxyhemoglobin to methemoglobin (Feelish et al., Eur. J. Pharmacol. 139:19-30 (1987); Olken et al., Biochem. Biophys. Res. Commun. 177:828-833 (1991)).
(§2) Thus, reaction mixtures for NOS assays containing 50 mM Tris-HCl buffer (pH 7.5), were optimized to contain 4 μM oxyhemoglobin, 100 μM NADPH, 1 mM CaCl2, 10 μM FAD, 10 μM FMN, 20 μM BH4, 150 μM DTT, 100 μM BK or L-arginine and 0.1-3 μg enzyme in a final volume of 0.5 mL.
(§3) Thus, calmodulin (10 μg/mL) was added to the reaction mixtures when L-arginine was used as substrate.
(§4) NOS activity assay. NOS activity was determined spectrophotometrically by the rapid and quantitative oxidation of oxyhemoglobin to methemoglobin (10,11). Optimized reaction mixtures for NOS assays contained 50 mM Tris-HCl buffer (pH 7.5), and were optimized to contain 4 μM oxyhemoglobin, 100 μM NADPH, 1 mM CaCl2, 10 μM FAD, 10 μM FMN, 20 μM BH. 150 μM DTT, 100 μM BK or L-arginine and 0.1-3 μg enzyme in a final volume of 0.5 ml. Calmodulin (10 μg/ml) was added to the reaction mixtures when L-arginine was used as substrate.

nNOS-II [2] = target: T1, nNOS-II; assay: Kinetic determinations (KM, Vmax, Ki) with the standard enzyme assay; assay type: biochemical
Procedure: as §1, §2, §3
Kinetic data were calculated by fitting experimental data to the EZ-FIT program (Perrella, Anal. Biochem. 174.437-447 (1988)).
as §4
Kinetic determinations. Kinetic experiments were conducted using the standard enzyme assay described above. […] Kinetic data were calculated by fitting experimental data to EZ-FIT program (12).

nNOS = nNOS (Rattus norvegicus, UniProt P29476); settings: cited from earlier work
[3] = Table 3, substrate 100 μM (poly-arginine 5 μg/ml), purified nNOS-II 0.2 μg, activity for arginine = 100%, means of three measurements
[4] = substrate 100 μM (poly-arginine 5 μg/ml), purified nNOS-II 0.2 μg, activity for arginine = 100%, means of three measurements

T1 sequence (P29476 whole entry): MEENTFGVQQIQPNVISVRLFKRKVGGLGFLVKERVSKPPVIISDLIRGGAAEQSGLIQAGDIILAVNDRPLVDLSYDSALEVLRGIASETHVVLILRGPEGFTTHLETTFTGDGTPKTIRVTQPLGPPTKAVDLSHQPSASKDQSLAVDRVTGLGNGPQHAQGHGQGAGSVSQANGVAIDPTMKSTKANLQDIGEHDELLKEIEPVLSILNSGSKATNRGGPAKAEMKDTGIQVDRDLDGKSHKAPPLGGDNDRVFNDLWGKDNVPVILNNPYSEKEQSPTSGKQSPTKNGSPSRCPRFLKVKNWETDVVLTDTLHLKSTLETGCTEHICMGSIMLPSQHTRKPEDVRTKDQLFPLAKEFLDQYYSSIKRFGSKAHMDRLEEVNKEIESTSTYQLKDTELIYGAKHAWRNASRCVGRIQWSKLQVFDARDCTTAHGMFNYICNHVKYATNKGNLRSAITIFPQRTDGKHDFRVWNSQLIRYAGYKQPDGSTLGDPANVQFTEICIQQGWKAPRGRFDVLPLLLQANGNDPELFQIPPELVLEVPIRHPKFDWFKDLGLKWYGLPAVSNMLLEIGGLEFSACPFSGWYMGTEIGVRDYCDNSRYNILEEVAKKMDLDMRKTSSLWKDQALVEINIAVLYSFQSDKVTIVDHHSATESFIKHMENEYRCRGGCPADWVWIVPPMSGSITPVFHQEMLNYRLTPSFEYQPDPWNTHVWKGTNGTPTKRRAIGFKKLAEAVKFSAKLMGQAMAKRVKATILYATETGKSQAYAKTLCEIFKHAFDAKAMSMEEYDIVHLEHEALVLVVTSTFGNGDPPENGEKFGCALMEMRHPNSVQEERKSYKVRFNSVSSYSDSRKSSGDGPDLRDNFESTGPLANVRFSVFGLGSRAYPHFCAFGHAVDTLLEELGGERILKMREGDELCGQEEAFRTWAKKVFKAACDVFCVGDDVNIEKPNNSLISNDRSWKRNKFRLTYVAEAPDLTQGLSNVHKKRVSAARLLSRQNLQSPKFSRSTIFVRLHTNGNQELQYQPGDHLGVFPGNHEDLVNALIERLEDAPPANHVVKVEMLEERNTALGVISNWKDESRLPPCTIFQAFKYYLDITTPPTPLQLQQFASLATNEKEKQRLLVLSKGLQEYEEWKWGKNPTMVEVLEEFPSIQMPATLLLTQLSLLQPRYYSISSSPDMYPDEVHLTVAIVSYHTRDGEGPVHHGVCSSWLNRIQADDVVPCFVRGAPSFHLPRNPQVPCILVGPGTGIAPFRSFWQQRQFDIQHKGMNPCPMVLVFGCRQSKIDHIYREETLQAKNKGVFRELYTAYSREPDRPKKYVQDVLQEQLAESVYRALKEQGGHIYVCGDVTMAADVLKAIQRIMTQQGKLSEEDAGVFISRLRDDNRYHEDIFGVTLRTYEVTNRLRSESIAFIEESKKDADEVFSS

Question: Which “Relative activity (%)” value (nNOS-II [1]; [3]) does the source give for RPPGFSP [BK fragment 1-7] here?
Answer: The value was 80%.

Question: And the “Relative Activity (%)” value (nNOS-II [1]; [4])?
Answer: The value was 80%.

Question: What about the “decrease of activity as substrate” value (nNOS-II [1]; text of Example 2, comparator not stated) of the same compound?
Answer: The value was 30%.

Question: Which “Relative activity (%)” value (nNOS-II [1]; [3]) does the source give for PPGFSP [BK fragment 2-7] here?
Answer: Its value is 0%.

Question: And the “Relative Activity (%)” value (nNOS-II [1]; [4])?
Answer: The value was 0%.

Question: Which results are given for KPPGFSPFR [[Lys^1]-BK]?
Answer: Relative activity (%) (nNOS-II [1]; [3]): 113%; Relative Activity (%) (nNOS-II [1]; [4]): 113%

Question: What does the source list for PPGFSPFR [Des-Arg^1-BK]?
Answer: Relative activity (%) (nNOS-II [1]; [3]): 94%; Relative Activity (%) (nNOS-II [1]; [4]): 94%; relative activity as substrate for nNOS-II (in words) (nNOS-II [1]; text of Example 2): activity similar to that of arginine

Question: For “[Thi^5,8, D-Phe^7]-BK (RPPG[2Thi]S[dF][2Thi]R)”, which “effect on nNOS-II activity” value (nNOS-II [2]; concentration range of 0.5-100 μM) is on record?
Answer: Its value is “no effect”.

Question: And the “effect on nNOS-II activity” value (nNOS-II [2]; concentration range of 0.5-100 mM)?
Answer: Its value is “no effect”.

Question: What does the source list for ISRPPGFSPFR [Ile-Ser-BK]?
Answer: Relative activity (%) (nNOS-II [1]; [3]): 110%; Relative Activity (%) (nNOS-II [1]; [4]): 110%

Question: What does the source list for “Arg-Pro-Pro-Gly-Phe (RPPGF; rat) [BK fragment 1-5]”?
Answer: Relative activity (%) (nNOS-II [1]; [3]): 61%; Relative Activity (%) (nNOS-II [1]; [4]): 61%; activity of that for BK (nNOS-II [1]; text of Example 2, relative to BK): about 50%

Question: Which Ki (nNOS-II [2]; nNOS-II with BK as substrate, competitive inhibition, read-out: apparent Ki) does the source give for “[N-adamantaneacetyl-D-Arg^0, Hyp^3, Thi^5,8, D-Phe^7]-BK” here?
Answer: Its Ki is 2500 nM.

Question: Which “Relative Activity (%)” value (nNOS-II [1]) does the source give for Poly-arginine here?
Answer: Its value is 30%.

Question: And the “Relative activity (%)” value (nNOS-II [1])?
Answer: Its value is 30%.

Question: What about the “activity for nNOS-II comparing to that of arginine” value (nNOS-II [1]) of the same compound?
Answer: The value was 30%.

Question: With `N=C(N)NCCC[C@H](N)C(=O)O` [L-arginine] as the compound, how does the Km (nNOS; previously described nNOS (Bredt et al.), read-out: reported KM for nNOS) read?
Answer: Its Km is 2 µM.

Question: And the “apparent Vmax for nNOS” value (nNOS; previously described nNOS, L-arginine as substrate)?
Answer: Its value is 0.96 μmol/min/mg protein.

Question: And the “Relative Activity (%)” value (nNOS-II [1])?
Answer: The value was 100^c %.

Question: And the “Relative activity (%)” value (nNOS-II [1])?
Answer: The value was 100^c %.

Question: And the “apparent Vmax” value (nNOS-II [2]; substrate of nNOS-II, calmodulin added when L-arginine is substrate)?
Answer: Its value is 0.85 μmol/min/mg protein.

Question: Which “Relative activity (%)” value (nNOS-II [1]; [3]) does the source give for RPPGFSPFR [BK] here?
Answer: The value was 125%.

Question: What about the “Relative Activity (%)” value (nNOS-II [1]; [4]) of the same compound?
Answer: The value was 125%.

Question: With “Met-Lys-Arg-Pro-Pro-Gly-Phe-Ser-Pro-Phe-Arg [Met-Lys-BK]” as the compound, how does the “Relative Activity (%)” value (nNOS-II [1]) read?
Answer: Its value is 0%.

Question: And the “Relative activity (%)” value (nNOS-II [1])?
Answer: The value was 0%.

Question: And the “relative activity as substrate for nNOS-II (in words)” value (“relative activity as substrate” for short) (nNOS-II [1]; text of Example 2)?
Answer: Its value is “no activity at all”.

Question: For “Lys-Arg-Pro-Pro-Gly-Phe-Ser-Pro-Phe-Arg [Lys-BK]”, which “Relative Activity (%)” value (nNOS-II [1]) is on record?
Answer: Its value is 116%.

Question: What about the “Relative activity (%)” value (nNOS-II [1]) of the same compound?
Answer: Its value is 116%.

Question: And the “relative activity as substrate” value (nNOS-II [1]; text of Example 2)?
Answer: The value was “almost the same activity”.

Question: For “Arg-Pro-Pro-Gly-Phe-Ser-Pro-Phe (APPGFSPF; rat) [Des-Arg^9-BK]”, which “Relative activity (%)” value (nNOS-II [1]; [3]) is on record?
Answer: The value was 180%.

Question: What about the “Relative Activity (%)” value (nNOS-II [1]; [4]) of the same compound?
Answer: The value was 180%.

Question: And the “relative activity as substrate” value (nNOS-II [1]; text of Example 2)?
Answer: The value was “about one-fold higher than that of arginine”.
